Reference: article PMC4966845 (mAbs, 2016)
Read-outs that look alike come from different tables or passages of the source.

Assays:
[1] = molecular target: T1, human IGF-1R extracellular domain (Homo sapiens, UniProt P08069); assay: SPR
[2] = molecular target: T2, IGF-1R on tumor cells (A549, TC-71) (Homo sapiens (A549, TC-71 cells), UniProt P08069); assay: flow cytometry on cells
[3] = molecular target: T1, human IGF-1R extracellular domain; assay: SPR; remark: listed apart in the source
[4] = molecular target: T2, IGF-1R on tumor cells (A549, TC-71); assay: flow cytometry on cells; remark: listed apart in the source

T1 sequence (P08069 741-935): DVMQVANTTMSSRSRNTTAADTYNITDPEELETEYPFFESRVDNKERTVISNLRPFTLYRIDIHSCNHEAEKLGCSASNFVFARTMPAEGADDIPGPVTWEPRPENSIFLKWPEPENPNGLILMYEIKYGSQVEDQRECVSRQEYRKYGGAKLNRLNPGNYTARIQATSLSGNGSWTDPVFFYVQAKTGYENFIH
T2 sequence (P08069 31-1367): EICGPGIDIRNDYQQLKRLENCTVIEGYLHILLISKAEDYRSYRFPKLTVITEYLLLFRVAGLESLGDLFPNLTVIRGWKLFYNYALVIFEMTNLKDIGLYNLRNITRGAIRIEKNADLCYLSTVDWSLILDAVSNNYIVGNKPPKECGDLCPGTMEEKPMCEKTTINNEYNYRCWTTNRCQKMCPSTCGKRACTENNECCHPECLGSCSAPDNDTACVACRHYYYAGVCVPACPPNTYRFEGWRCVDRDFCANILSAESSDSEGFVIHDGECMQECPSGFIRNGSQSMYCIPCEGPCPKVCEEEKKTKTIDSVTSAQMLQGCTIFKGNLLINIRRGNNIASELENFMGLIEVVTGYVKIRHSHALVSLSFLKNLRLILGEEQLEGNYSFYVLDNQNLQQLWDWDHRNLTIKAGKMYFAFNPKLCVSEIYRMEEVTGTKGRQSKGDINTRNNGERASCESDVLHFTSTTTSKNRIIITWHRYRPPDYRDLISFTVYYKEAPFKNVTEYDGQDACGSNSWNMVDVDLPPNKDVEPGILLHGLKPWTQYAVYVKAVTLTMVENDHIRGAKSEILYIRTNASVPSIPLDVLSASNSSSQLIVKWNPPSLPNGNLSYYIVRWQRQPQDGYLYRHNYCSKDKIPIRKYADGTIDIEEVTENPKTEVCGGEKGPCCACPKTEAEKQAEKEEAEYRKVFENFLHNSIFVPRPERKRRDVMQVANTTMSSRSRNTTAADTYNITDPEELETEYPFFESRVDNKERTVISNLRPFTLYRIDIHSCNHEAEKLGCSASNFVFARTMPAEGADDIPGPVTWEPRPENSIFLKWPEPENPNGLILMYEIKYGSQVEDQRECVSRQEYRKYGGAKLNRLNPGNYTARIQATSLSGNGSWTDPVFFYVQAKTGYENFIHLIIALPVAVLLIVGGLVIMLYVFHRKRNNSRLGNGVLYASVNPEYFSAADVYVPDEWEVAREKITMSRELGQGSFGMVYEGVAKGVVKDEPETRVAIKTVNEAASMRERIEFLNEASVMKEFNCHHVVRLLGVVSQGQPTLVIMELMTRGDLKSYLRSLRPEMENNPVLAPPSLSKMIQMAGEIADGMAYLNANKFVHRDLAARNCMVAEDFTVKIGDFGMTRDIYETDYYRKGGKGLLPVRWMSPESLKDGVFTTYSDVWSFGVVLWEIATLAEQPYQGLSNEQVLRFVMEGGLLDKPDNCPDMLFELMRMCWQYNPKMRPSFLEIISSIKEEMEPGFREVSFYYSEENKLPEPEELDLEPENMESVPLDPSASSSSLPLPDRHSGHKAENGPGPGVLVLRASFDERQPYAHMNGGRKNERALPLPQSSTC

| Kd [1] [nM] | koff [1] [s⁻¹] | kon [1] [M⁻¹ s⁻¹] | IC50 [2] [nM] | Kd [3] [nM] | fold reduction of binding against bivalent R1507 [4] [fold] | fold reduction of binding against bivalent R1507 [2] [fold] | Binder |
| --- | --- | --- | --- | --- | --- | --- | --- |
| 1.47 | 0.00025 | 170000 |  |  |  |  | F13B5 Fab fragment (Fab, V domains shown) VH: QVELVESGGGVVQPGRSQRLSCAASGFTFSSYGMHWVRQAPGKGLEWVAIIWFDGSSTYYADSVRGRFTISRDNSKNTLYLQMNSLRAEDTAVYFCARELGRRYFDLWGRGTLVSVSS VL: EIVLTQSPATLSLSPGERATLSCRASQSVSSYLAWYQQKPGQAPRLLIYQASKRATGIPARFSGSGSGTDFTLTISSLEPEDFAVYYCQQRSKYPPWTFGQGTKVESK |
|  |  |  | ~1 | 5 |  |  | R1507, bivalent monospecific anti-IGF-1R antibody (antibody, V domains shown) VH: QVELVESGGGVVQPGRSQRLSCAASGFTFSSYGMHWVRQAPGKGLEWVAIIWFDGSSTYYADSVRGRFTISRDNSKNTLYLQMNSLRAEDTAVYFCARELGRRYFDLWGRGTLVSVSS VL: EIVLTQSPATLSLSPGERATLSCRASQSVSSYLAWYQQKPGQAPRLLIYDASKRATGIPARFSGSGSGTDFTLTISSLEPEDFAVYYCQQRSKWPPWTFGQGTKVESK |
| 18 | 0.00271 | 153000 |  |  | ~10 | ~34 | R1507 Fab fragment (Fab, V domains shown) VH: QVELVESGGGVVQPGRSQRLSCAASGFTFSSYGMHWVRQAPGKGLEWVAIIWFDGSSTYYADSVRGRFTISRDNSKNTLYLQMNSLRAEDTAVYFCARELGRRYFDLWGRGTLVSVSS VL: EIVLTQSPATLSLSPGERATLSCRASQSVSSYLAWYQQKPGQAPRLLIYDASKRATGIPARFSGSGSGTDFTLTISSLEPEDFAVYYCQQRSKWPPWTFGQGTKVESK |
